Results as given in patent EP4471063A1 (Medilink Therapeutics (Suzhou) Co., Ltd., dated 2023).
Positions count from the first letter of the chain named.

T1: human Her4-His (human, UniProt Q15303 26-649, limits assumed)
T1 construct: Bought protein
T1 sequence (looked up): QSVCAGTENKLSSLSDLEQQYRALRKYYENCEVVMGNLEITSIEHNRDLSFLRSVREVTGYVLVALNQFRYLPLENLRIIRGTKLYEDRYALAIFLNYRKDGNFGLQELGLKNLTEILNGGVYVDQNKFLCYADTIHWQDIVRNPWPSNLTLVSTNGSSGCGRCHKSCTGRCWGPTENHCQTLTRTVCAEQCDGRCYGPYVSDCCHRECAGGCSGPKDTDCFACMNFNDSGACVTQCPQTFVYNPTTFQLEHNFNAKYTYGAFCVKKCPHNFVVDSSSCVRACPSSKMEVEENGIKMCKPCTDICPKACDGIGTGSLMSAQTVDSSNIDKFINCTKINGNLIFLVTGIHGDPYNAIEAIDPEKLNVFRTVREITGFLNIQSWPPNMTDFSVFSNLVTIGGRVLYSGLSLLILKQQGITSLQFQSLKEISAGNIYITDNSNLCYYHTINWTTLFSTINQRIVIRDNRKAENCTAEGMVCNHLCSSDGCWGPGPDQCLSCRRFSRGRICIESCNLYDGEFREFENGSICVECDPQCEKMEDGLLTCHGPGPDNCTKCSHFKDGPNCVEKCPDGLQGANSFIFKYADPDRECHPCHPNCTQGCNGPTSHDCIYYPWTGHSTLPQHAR

T2: monkey Her3-his (monkey)
T2 chain: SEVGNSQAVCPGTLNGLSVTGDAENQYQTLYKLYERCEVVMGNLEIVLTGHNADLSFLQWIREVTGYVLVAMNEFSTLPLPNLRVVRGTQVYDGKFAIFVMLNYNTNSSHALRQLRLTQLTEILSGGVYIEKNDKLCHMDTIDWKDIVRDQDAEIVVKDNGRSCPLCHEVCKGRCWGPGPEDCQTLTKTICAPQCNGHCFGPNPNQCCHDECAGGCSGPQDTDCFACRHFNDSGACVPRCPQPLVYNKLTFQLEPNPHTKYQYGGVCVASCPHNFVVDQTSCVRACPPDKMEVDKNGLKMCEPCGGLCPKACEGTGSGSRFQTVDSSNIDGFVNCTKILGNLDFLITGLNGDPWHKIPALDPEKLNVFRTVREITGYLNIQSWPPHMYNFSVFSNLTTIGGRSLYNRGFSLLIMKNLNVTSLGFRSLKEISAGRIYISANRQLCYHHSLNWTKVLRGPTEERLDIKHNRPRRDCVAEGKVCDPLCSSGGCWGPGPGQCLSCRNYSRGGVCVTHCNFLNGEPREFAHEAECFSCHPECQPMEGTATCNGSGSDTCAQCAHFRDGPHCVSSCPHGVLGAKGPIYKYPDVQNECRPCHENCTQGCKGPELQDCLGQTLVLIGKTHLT

T3: rat Her3-his (rat)
T3 chain: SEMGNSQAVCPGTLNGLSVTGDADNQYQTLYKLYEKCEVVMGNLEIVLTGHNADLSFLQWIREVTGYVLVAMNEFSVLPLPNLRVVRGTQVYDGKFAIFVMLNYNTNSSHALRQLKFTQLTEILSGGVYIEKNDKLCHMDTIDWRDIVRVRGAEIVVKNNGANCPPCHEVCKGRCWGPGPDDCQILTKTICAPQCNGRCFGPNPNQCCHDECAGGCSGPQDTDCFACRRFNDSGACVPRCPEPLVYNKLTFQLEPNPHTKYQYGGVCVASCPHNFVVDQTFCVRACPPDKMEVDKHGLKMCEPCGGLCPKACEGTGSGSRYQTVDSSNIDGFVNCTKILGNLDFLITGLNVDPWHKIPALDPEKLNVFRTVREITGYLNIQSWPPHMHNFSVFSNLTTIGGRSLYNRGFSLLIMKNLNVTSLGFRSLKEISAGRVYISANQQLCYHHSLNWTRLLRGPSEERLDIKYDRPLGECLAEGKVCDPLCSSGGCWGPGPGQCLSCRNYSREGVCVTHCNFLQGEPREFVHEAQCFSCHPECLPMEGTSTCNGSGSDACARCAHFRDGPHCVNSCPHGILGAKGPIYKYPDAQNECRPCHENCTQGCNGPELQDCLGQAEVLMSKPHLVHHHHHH

B1: antibody 202-2-1 (antibody, human IgG1, kappa, V domains shown)
VH: EVQLVESGGGVVQPGRSLRLSCAASGFTFSTYGMHWVRQAPGKGLEWVAVIWYDVSHKYYADSVKGRFTISRDNSKNTLSLQMNSLRAEDTAVYYCARDWGDPDAFDIWGQGTMVTVSS
VL: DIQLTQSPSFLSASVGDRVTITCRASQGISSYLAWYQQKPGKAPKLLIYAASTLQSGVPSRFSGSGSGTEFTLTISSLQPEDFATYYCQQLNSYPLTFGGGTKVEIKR
notes: Fully human IgG1/kappa from a phage scFv library; expressed in HEK293F; also called Her3mAb
B2: antibody 202-3-1 (antibody, human IgG1, kappa, V domains shown)
VH: QVQLQESGPGLVKPSETLSLTCTVSGGSISGYFWSWIRQSPGKGLEWIGYIHYSGRTNYNPSLKSRVTISVDTSKNQFSLKLSSVTAADTAVYYCARETGGSGHWYFDLWGRGNLVTVSS
VL: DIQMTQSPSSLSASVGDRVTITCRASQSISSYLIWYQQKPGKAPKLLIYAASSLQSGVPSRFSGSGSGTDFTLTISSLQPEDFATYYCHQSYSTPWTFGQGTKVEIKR
B3: antibody 202-3-2 (antibody, human IgG1, kappa, V domains shown)
VH: B2 VH with K43Q, K81Q
VL: DIQMTQSPSSLSASVGDRVTITCRASQSISSYLIWYQQKPGQAPRLLIYAASSLQSGVPSRFSGSGSGTDFTLTISSLQPEDFATYYCHQSYSTPWTFGQGTKVEIKR
notes: IgG1/kappa

Tests used:
[1] = target: T4, human Her3 on tumor cells (human, UniProt P21860 20-1342); assay: cell-based or functional assay
[2] = target: T5, human EGFR-His (human, UniProt P00533 25-645); assay: ELISA, coated human EGFR-His
T5 construct: Bought protein

[3] = target: T6, human Her2-His (human, UniProt P04626 23-652); assay: ELISA, coated human Her2-His
T6 construct: Bought protein

[4] = target: T1, human Her4-His; assay: ELISA, coated human Her4-His
[5] = target: T4, human Her3 on tumor cells; assay: flow cytometry, T47D tumor cells
[6] = target: T5, human EGFR-His; assay: ELISA, coated EGFR-his, antibody 40 ng/mL
[7] = target: T6, human Her2-His; assay: ELISA, coated Her2-his, antibody 40 ng/mL
[8] = target: T7, human Her3-his (human, UniProt P21860 20-643); assay: ELISA, coated Her3-his, antibody 40 ng/mL
T7 construct: Construct encodes positions 1-643 with its own leader; Expressed in HEK293F, purified on a Ni column; also called human Her3 protein

[9] = target: T1, human Her4-His; assay: ELISA, coated Her4-his, antibody 40 ng/mL
[10] = target: T5, human EGFR-His; assay: ELISA, coated EGFR-his, antibody 200 ng/mL
[11] = target: T6, human Her2-His; assay: ELISA, coated Her2-his, antibody 200 ng/mL
[12] = target: T7, human Her3-his; assay: ELISA, coated Her3-his, antibody 200 ng/mL
[13] = target: T1, human Her4-His; assay: ELISA, coated Her4-his, antibody 200 ng/mL
[14] = target: T4, human Her3 on tumor cells; assay: flow cytometry, A549-human Her3 tumor cells
[15] = target: T5, human EGFR-His; assay: ELISA, coated EGFR-his, antibody 1000 ng/mL
[16] = target: T6, human Her2-His; assay: ELISA, coated Her2-his, antibody 1000 ng/mL
[17] = target: T7, human Her3-his; assay: ELISA, coated Her3-his, antibody 1000 ng/mL
[18] = target: T1, human Her4-His; assay: ELISA, coated Her4-his, antibody 1000 ng/mL
[19] = target: T7, human Her3-his; assay: ELISA, coated human Her3-his, anti-human Fc-HRP
[20] = target: T2, monkey Her3-his; assay: ELISA, coated monkey Her3-his, anti-human Fc-HRP
[21] = target: T7, human Her3-his; assay: BLI (Fortibio), antibody on ProteinA sensor, human Her3-His in solution, 1:1 model
[22] = target: T3, rat Her3-his; assay: ELISA, coated rat Her3-his, anti-human Fc-HRP

| Binder | binding result [2] | binding result [3] | binding result [4] | OD450 [6] | OD450 [7] | OD450 [8] | OD450 [9] | OD450 [10] | OD450 [11] | OD450 [12] | OD450 [13] | EC50 [14] [pM] | Maximum MFI [14] [MFI] | OD450 [15] | OD450 [16] | OD450 [17] | OD450 [18] | EC50 [19] [pM] | EC50 [20] [pM] | Kd [21] [pM] | further results |
| --- | --- | --- | --- | --- | --- | --- | --- | --- | --- | --- | --- | --- | --- | --- | --- | --- | --- | --- | --- | --- | --- |
| B1 | no binding (tested: 1 µg/mL, 200 ng/mL, and 40 ng/mL) | no binding (tested: 1 µg/mL, 200 ng/mL, and 40 ng/mL) | no binding (tested: 1 µg/mL, 200 ng/mL, and 40 ng/mL) | 0.051 | 0.049 | 0.573 | 0.05 | 0.051 | 0.05 | 0.695 | 0.051 | 1150 | 63800 | 0.051 | 0.049 | 0.61 | 0.051 | 21 | 15.9 | 13100 | IC50 of inhibition of NRG1-induced AKT phosphorylation in MCF-7 cells (cell blotting, anti-Phospho Akt Ser473) [1]: 243 pM; EC50 [5]: 80 pM; koff [21]: 0.00218 s⁻¹; kon [21]: 167000 M⁻¹ s⁻¹ |
| B2 | no binding (tested: 1 µg/mL, 200 ng/mL, and 40 ng/mL) | no binding (tested: 1 µg/mL, 200 ng/mL, and 40 ng/mL) | no binding (tested: 1 µg/mL, 200 ng/mL, and 40 ng/mL) | 0.055 | 0.052 | 0.281 | 0.049 | 0.05 | 0.049 | 0.344 | 0.051 | 2040 | 55700 | 0.05 | 0.048 | 0.333 | 0.05 | 60.6 | 39.6 | 7790 | IC50 of inhibition of NRG1-induced AKT phosphorylation in MCF-7 cells (cell blotting, anti-Phospho Akt Ser473) [1]: 1040 pM; EC50 [22]: 154 pM; koff [21]: 0.00142 s⁻¹; kon [21]: 182000 M⁻¹ s⁻¹ |
| B3 | no binding (tested: 1 µg/mL, 200 ng/mL, and 40 ng/mL) | no binding (tested: 1 µg/mL, 200 ng/mL, and 40 ng/mL) | no binding (tested: 1 µg/mL, 200 ng/mL, and 40 ng/mL) | 0.051 | 0.05 | 0.306 | 0.051 | 0.05 | 0.051 | 0.407 | 0.051 | 2590 | 54800 | 0.051 | 0.05 | 0.427 | 0.05 | 78.2 | 43.9 | 6810 | EC50 [22]: 225 pM; koff [21]: 0.00124 s⁻¹; kon [21]: 182000 M⁻¹ s⁻¹ |
